Experimental data from patent publication US20250002576A1.

Biological target: human Claudin 18.2 (human) (UniProt P56856)
Test: flow cytometry, antibody dilution series on hCLDN18.2-expressing MiaPaCa-2 cells

B1: YU577-E08 (antibody, V domains shown)
VH: QVQLVQSGAEVKKPGASVKVSCKASGYTFTSYYMHWVRQAPGQGLEWMGIINPSGGSTSYAQKFQGRVTMTRDTSTSTVYMELSSLRSEDTAVYYCATRQFDYWGQGTLVTVSS
VL: QSVLTQPPSVSAAPGQKVTISCSGSSSNIGNNYVSWYQQLPGTAPKLLIYENNKRPSGIPDRFSGSKSGTSATLGITGLQTGDEADYYCGTWDSSLSAAVFGGGTKVTVL
EC50: 7.2 nM
